Results reported in the DeepSol protein solubility set.

Test: soluble on expression in E. coli; label from the status in PepcDB or PDB records

Sequence | soluble on expression in E. coli
MKTIHIYTNGRLEEKRGDIVREFPLVLQVNGREIATLIASPHDLRFLVAGFLRNQGFVESAADFHMLAVCDEFGIANVRIRQELPERLKPVLTSGCGTGITFTLETGGREAAVAPSPAVAPEAVFRLMEELARQADNYRNHGGIHSAAVGDGEGNLLLFAEDIGRHNTLDRIAGEALLKGIDLAGRILVTSGRVSTEMASKCARLGIALVASRTSATDMAATLCHEAGICLLGYVRGGKFTVYTHSDRLLVPEQAAASLPGPVPRGRIPGVTGVILAGGQSSRMGSNKALLPYRGGRFIESIHRQLSEYFDEVIVVTNTPEQYEFLPCRKVTDIHEGMGALAGIHAGLHHSSNPAAFVVACDMPYLNGDLIRHLASMADPGGVLIPESPTGLEPLHAVYGKGCLAAIEATLLSGQRRIVSFFGRTNVNRVNVAQIAAFDPEFNSFRNINTPTDYYRLREIERGEALPAPADERAGASALEHHHHHH | not soluble
MIFDHGKKLMKRVERYSGCSSGSLVAAMFIFNPEKLVFLVSFRKTKGRLPLFSLFLLNFRNLCILSISEAVEEIYKMADEVNDKTLGAMSPGFVISDRLRKVVEKFLPDDVAKANDLLFVSVTKLKTWKNELISNFESKIDLIDCLMASCYHPMYSSGLNGKAPILRGEAYIDGGYSNMIPEFLDMRTVTVSAFAGDADICPVEKSALFNDFMFAFFNQNMKLTLSNMKRVTNALFPPTRAILQEYFNAGARDAEKLLKDSGFYE | not soluble
MNQPSYTSGRQDVALLATTVGDAFDATVARHAEREALVVRHQRLRYSWRQLAERVDAYARAFIALGLRPGERLGIWAPNCAEWCITQFASAKVGAVLVNINPAYRSSELEYALKQSGCSWLICADAFKTSDYHAMLGDLLPELARARPGELASERLPELRGVISLAERAPAGFLHWQGLPGLAAAVGAEELRQRQASLQFDEPINIQYTSGTTGFPKGATLSHYNILNNGYMVGESLGLGAEDRLVIPVPLYHCFGMVMGNLGCVTHGSTMIYPAPSFDAEATLLAVAEERATALYGVPTMFIAELDHPRRREFDLSSLRTGIMAGATCPIEVMRRVIGDMHMAEVQIAYGMTETSPVSLQTGPDDGLELRVTTVGRTQPRLESKIVDQTGRVVPRGEIGELCTRGYSVMLGYWNDPQATAEAIDPARWMHTGDLAVMDDDGYVRIVGRSKDMIIRGGENIYPRELEEFFFTHPAVADVQVIGIPDERYGEEIVAWIKLHPGHHADDEQLRAFCKARIAHFKIPRHFKFVDEFPMTVTGKIQKFRMREISIEEIRLLALRQGR | not soluble
MGHHHHHHSHPKQEKLLSLAGDSLFWSEADVVQATDDFNQNRKISQGTFADVYRGHRHGKPFVFKKLRETACSSPGSIERFFQAELQICLRCCHPNVLPVLGFCAARQFHSFIYPYMANGSLQDRLQGQGGSDPLPWPQRVSICSGLLCAVEYLHGLEIIHSNVKSSNVLLDQNLTPKLAHPMAHLCPVNKRSKYTMMKTHLLRTSAAYLPEDFIRVGQLTKRVDIFSCGIVLAEVLTGIPAMDNNRSPVYLKDLLLSDIPSSTASLCSRKTGVENVMAKEICQKYLEKGAGRLPEDCAEALATAACLCLRRRNTSLQEVCGSVAAVEERLRGRETLL | not soluble
MTIATSVAGSSENFAELFNESLSHKEMRVGEVITAEIIRVDYNFVVVNAGLKSESYIPIEEFKNDRGEIEAREGDFVSVAIEALENGFGETRLSRDKAKRLNAWYELEEAMEKGKIVTGMVNGKVKGGLTATINGIRAFLPGSLVDIRPVKDMTPYENKEMEFKVIKLDRKRNNVVVSRRAVLEETQGADRDELLASLQDGAVVQGIVKNITDYGAFVDLGGIDGLLHITDLAWRRVKHPTEVINVGDEVTAKVLKFDQEKNRVSLGLKQLTEDPWIGLSRRYPQGTRIFGKVTNMTDYGAFVEIEQGIEGLVHVSEMDWTNKNVYPSKIVQLGDEVEVMILEIDEDRRRISLGMKQCRPNPWEEFSLSHEKGDKVTGQIKSITDFGLFIGLPGNIDGLVHLSDLSWNQPGEKAISEFKKGDEVEAVVLSIDVEKERISLGIKQLEGDPFNIYVASHDKNSIVKGTVKSVDAKGAVIALTDEVEGYLRASEFSRDKIEDIRSRVNEGDEIEAMIINIDRKNRSISLSVKARIQDEEDKAVKSLASVSNPASAGTTNLGALLKAKIDSKSSEELEHHHHHH | soluble
MAGDPMGQKTQQDIVAGLDEKAKEYTSYKAKAKMTIETGSEPQVYNVEIWHKKPSLYRVYLENPKKDQNQVILRNENGVFVLTPSLNKSFRFQSDWPNNSSQVYLFESLVKDVQNDSDAVFTAKEKKYVFETKTNYQHNKMLPTQEITFNKKDMSPSSVKVMDTDRKVMVKVEFSSFEFNKQFDKESFDEKKNMTLSQMDVATSAKPSDTFAVKTPLELPLGVKLLEEKDISTEDGKRIIMTYGGEKSFTLIQEKAQIAKASSSVTLNGEPVNLGYTIGALSDASLSWTYDGVDYLLSSKDLSKEEMVTVAKSMQGQSSKLEHHHHHH | soluble
MSLSRLLNDFNQSLKKGFIDKDISHKGNYTPKLLVNNKNEKVLSTIIDELQKCETFYFSVAFITESGLASLKAQLLDLSNKGVKGKILTSNYLGFNSPKMYGELLKLKNVEVRLTDIAGFHAKGYIFEHKDYSSMVIGSSNLTSNALKVNYEHNVLLSTMKNGDLVDSVKNEFELLWQKSTPLTEQWINSYKESFEYRSLEKLAEVEQTQMLLADKVKKSVEIVPNLMQAEALRSLKAIRDKTKDKALIISATGTGKTILCALDVREVNPNKFLFIVHNEGILNRAKEEFKKVLPIKNDSDFGLLTGKHRDVDAKYLFATIQTLSRDDNFKQFDENEFDYIVFDEAHRSAASTYQRVFNYFKPKFMLGMTATPERSDELSIFELFDYNIAYEIRLQAALESDILCPFHYFGVTDYVHQGIKEDDVTKLRYLTSDERVNYIIQKTDEGHHHHHH | not soluble
MGSDKIHHHHHHMKRQRLAIIDIGSNSIRLVINTINEHGHYQELYNFKTVARLSNHLDAQGNLTKEGTSILLTTLQKFRTLTEDHHCDRAIVVATAAMRKANNRKELLKLAEQETGFSIKLLSEYEEAYFGYLAIVNSTSIQDGITIDIGGGSTEITRFSNRKLLHYHSFPFGAITLYRDFFHSTDPSEEELASLQTFLESAFATLPWLQDAKDLPVIGIGGTARNLSLIHQRQTDYPLAGLHQYSFPAEELHSVTQMLQRLTSSEREGLDGLSKDRVDVIIPGTQAISSLVKTIGSSQFIMSRKGLRDGLFYSEILEQLNLECFPNVVEESFYQLYHQYEINLEHVKQVAKLATKLYEQLAPFYNGKLEHQQNLTLIHRAARVLYLGEHINPEASSQHTFYLLTNMSIDGLNHEERLALACVSSFKSKAQLLHMASPFMPLISKKQLKRFEFLGAILKLAYCLNRTRRHVIGKIGTIEAKRDALVLPLYYHYDLDPSFEQDYALKHVKHVEKVIKKTIELPFLPLSNFT | not soluble
MEYCRLDGDTGRLRTEIKHPRLLLFNPGHEMVPEIIGKKPYVPPPVVRSMMRDLGLLPAWLTKSEQDFVFCPEKTLPIPDTHPLKPEARLLQIPDTALPLNDYTLDMWGQSPVWLAALQHRFLWLSTVSAPYYPHELYERSHRCEAARCLEAIGHSEMAAHWFTSINDFLKERYHCFPPDSALLAKLPSSSSGRGLIWLSSSPTDDEIDLLTKALRRAGSFSVEPVLDVRQDWAAEFYSNGKGELYFVGWSRFDTNRWGAYLGNRLATQTDLVAELTQTVGAQAHEEAIASVKDYLRER | not soluble
MSIDKSPREHWASHQERGSFMLMKLTAWGMRVLGRRLLTPVQYGIVLYFFVFGRRARHSIWEYQQRLADWSARPELRPSQRRVFGQFMAFAEALLDKLDVWNGRLGIEQIEIIDPALLRQSLRGARGQMLVGAHLGNLEVCRALAELGEKITMNVLVHTKHAERFNRLLGEAGATNLRLIQVSELDPAIMLQLSQRLDEGEWLAIAGDRVALHGGRNVRVDFLGQPATFPQGPWLLAGLLKCPVNLFFCLKGPKGYRVILEPFADAIEWRRSDRAQVIAHWATRYAERLGHYCLEAPQQWFNFYPFWKSDDESSS | not soluble
MNVMTEKKKLVVWVPLPPNSSWRGEGIAQTIENIVRNISPERKIEIVVSSKHAEMLVGLEKSNPNISVLTLGFRGKSTKKTIGYVSLNEVEKDSLWDLVIAKLPIIPAIFRKVGMYVSQLEYLLSLYIYSHLQRRGRFSSNNCRVWLPTPIIPYTHLLGGEKFVSFWDPFVFEYNKEFPLTAEYFVKKLSKHFSNASAIITQSRANKDYLETVMGIESSKINVIYNGSPDYSEFKKQQSNLSFSEVWSKSEFSGASKKAAFEALVNHQLNFSVLWRLLTKNKVSNRKIVLISTQNRPYKGFDQLFVLINELCLRRDNYDFIFTCNVPTKLKERYPSLYERIHEVTRVDNYLHASLYLMSDIVLHPSNVEGGLGAYPQYEASSVGKPSLINTGRHVNEMAEEGFDVDLLSSNFVNTKETVDKIEKLINSEEYMRQNIDAINRLKISWKESASNYENVFFGNENA | not soluble
MVLLDNADRVVLLTEKERPRGRKIDISLTFLLPHDNWFSVEDGVSDHYFSRRGFLRASLLGVLCLRGIGSALATEFLEESYPVGRLSLRNIHTGEHLSVTYRTPDGEVDLDALNSINWLLRCHFTNQHTEMDLAVIEYLNMVDKVLGGGREFRIISGYRSPEYNRILSEHNGAVAKQSLHMEGKAIDIAVPGVSLAVLRDLAAGFRCGGVGYYPHSGFVHLDSGRFRTW | not soluble
MKTKFYDYQGEHLILYFAGWGTPPDAVNHLILPENHDLLICYDYQDLNLDFDLSAYRHIRLVAWSMGVWVAERVLQGIRLKSATAVNGTGLPCDDSFGIPYAIFKGTLENLTENTRLKFERRICGDKASFERYQLFPARPFDEIHQELTALFAMIQQDKRIDLIHWANAWVSSRDKIFTPANQHQYWALRCAVQEIEGEHYVFSRFTHWSALWDH | not soluble
MGSSHHHHHHSSGLVPRGSHGLVPRGSHMKKLKLHGFNNLTKSLSFCIYDICYAKTAEERDGYIAYIDELYNANRLTEILSETCSIIGANILNIARQDYEPQGASVTILVSEEPVDPKLIDKTEHPGPLPETVVAHLDKSHICVHTYPESHPEGGLCTFRADIEVSTCGVISPLKALNYLIHQLESDIVTIDYRVRGFTRDINGMKHFIDHEINSIQNFMSDDMKALYDMVDVNVYQENIFHTKMLLKEFDLKHYMFHTKPEDLTDSERQEITAALWKEMREIYYGRNMPAV | soluble
MMKAKVIDAVSFSYILRTVGDFLSEANFIVTKEGIRVSGIDPSRVVFLDIFLPSSYFEGFEVSQEKEIIGFKLEDVNDILKRVLKDDTLILSSNESKLTLTFDGEFTRSFELPLIQVESTSPPSVNLEFPFKAQLLTITFADIIDELSDLGEVLNIHSKENKLYFEVIGDLSTAKVELSTDNGTLLEASGADVSSSYGMEYVANTTKMRRASDSMELYFGSQIPLKLRFKLPQEGYGDFYIAPRAD | soluble
PVAMKEAQKRLGDKVEYTTDMYDAVRGAEALFHVTEWKEFRMPDWSALSQTMAASLVIDGRNVYELPADSDFTLLNIGNSAIESASSK | not soluble
MGSDKIHHHHHHLNTDPSTAVPSDDAIKNIDDAQVALNGIYRLASAHSYYGDNYLYYADCRGEDVQARINKGAGRRVSPYYFFDVTADDNFNITLVWNQPYKVIHQANSLIEKLDAGNAGNARPEEVARIKSEALAMRGLALFDLTRLFGMPYTLDNGASLGVPIEIQTTLEDHAPERNTVAQCYEQVLKDLNDALGGLTKEKHDAYMNYWSVKALLSRVYLYMNDNENALKCAEEVINDNGGIYRLFTHDEYPSVWGKDFNSESLFEFYFTMSEPSGGSGGEGAPMVYADNVKDWNNLILTKAYLDLLNEDPEDVRHVFPHLPENAVADTLPVAAKGQPKYLIKYPGKSGSVTDAVSTVNPQDNDLCILRLSEVYLNAAEAAFKIGNTEKALTYLNAIVTRANPAKSVTSADLSLERILKERRKELVGEGHAFFDYMRNGKSVDRSGGWHLTMPEDARVIAPSDPRVALPIPQTEIDANPNIVQNPR | not soluble
